For 1 substance, entry of QOZHG into J/C cells (X-gal staining results are on record in patent US10328136.

The assay deals with nectin-1 (human) (UniProt Q15223). Kind of assay: cell-based or functional assay.
Chain of UniProt Q15223 (Q15223 31-517): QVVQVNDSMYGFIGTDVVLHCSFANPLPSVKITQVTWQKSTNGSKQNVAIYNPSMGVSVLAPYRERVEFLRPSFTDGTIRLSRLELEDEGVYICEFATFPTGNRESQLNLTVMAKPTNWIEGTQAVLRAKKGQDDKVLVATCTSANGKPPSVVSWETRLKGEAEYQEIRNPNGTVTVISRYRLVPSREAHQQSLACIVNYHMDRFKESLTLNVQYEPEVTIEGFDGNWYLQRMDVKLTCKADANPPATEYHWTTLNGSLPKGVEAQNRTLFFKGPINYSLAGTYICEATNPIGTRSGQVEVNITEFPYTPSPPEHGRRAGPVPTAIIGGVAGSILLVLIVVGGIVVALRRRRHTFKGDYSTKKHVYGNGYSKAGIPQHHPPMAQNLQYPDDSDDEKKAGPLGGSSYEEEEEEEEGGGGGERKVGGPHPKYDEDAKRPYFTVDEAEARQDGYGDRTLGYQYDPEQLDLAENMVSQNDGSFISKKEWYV

For “wild-type glycoprotein D (gD) of HSV-1 strain KOS”, the entry of QOZHG into J/C cells (X-gal staining at 24 hpi, MOI=10) was determined as 100%.
